Laboratory results: patent US7332279B2 (Glycozym APS, priority 1999, dated 2008)
Values belong to the molecule of their own block, whether it stands above or below them.

Legend:
β3Gal-T1 = target: T1, β3Gal-T1 (Homo sapiens, UniProt Q9Y5Z6); assay: Galactosyltransferase assay with glycoprotein acceptors, β3Gal-T1; format: biochemical; conditions: for β3Gal-T1 activity with glycoprotein acceptor: 0.5 mg glycoprotein, 150 μM UDP-Gal
T1 construct: The kinetic properties were determined with partially purified, secreted forms of the enzymes; made in house; host or cells: baculovirus; Sf9 / High Five insect cells, medium
T1 sequence (Q9Y5Z6 27-326 limits assumed): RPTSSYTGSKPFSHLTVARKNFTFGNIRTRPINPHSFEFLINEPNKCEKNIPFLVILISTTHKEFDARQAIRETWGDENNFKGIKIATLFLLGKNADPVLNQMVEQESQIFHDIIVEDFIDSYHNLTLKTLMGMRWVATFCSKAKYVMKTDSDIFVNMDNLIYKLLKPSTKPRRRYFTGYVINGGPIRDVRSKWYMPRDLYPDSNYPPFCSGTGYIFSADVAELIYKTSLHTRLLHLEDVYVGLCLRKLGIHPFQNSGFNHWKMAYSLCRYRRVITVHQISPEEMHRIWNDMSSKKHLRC
Description: (§1) The kinetic properties were determined with partially purified, secreted forms of the enzymes. Semipurification of enzymes from serum-free medium of infected High-Five™ cells was performed by sequential Amberlite, DEAE-Sephacel and 5-Sepharose chromatography as described previously (Wandall, H. H., Hassan, H., Mirgorodskaya, E., et al. Substrate specificities of three. members of the human UDP-N-acetyl-alpha-D-galactosamine:Polypeptide Nacetylgalactosaminyltransferase family, GalNAc-T1, -T2, and -T3. J. Biol. Chem. 272:23503-23514, 1997). Comparisons of enzymes were performed relatively to the activity obtained with βGlcNAc-Bz1 (Tables II and III). Full length enzymes were assayed with 1% Triton CF54 homogenates of washed cells. Enzyme assays were performed in 50 μl total reaction mixtures containing 25 mM Cacodylate (pH 7.5), 10 mM MnCl2, 0.25% Triton X-100, 100 μM UDP-[^14C]-Gal (2,600 cpm/nmol) (Amersham), and varying concentrations of acceptor substrates (Sigma) (see Table I for structures). Reaction products were quantified by Dowex-1 chromatography. […] The transfer of Gal was evaluated after acid precipitation by filtration through Whatman GF/C glass fibre filters. […] Assays with glycolipid acceptors were conducted as previously described (Holmes, E. H. Characterization and membrane organization of beta 1-3- and beta 1-4-galactosyltransferases from human colonic adenocarcinoma cell lines Cob 205 and SW403: basis for preferential synthesis of type 1 chain lacto-series carbohydrate structures. Arch Biochem Biophys 270:630-646, 1989) in reaction mixtures containing 2.5 μmol HEPES buffer, pH 7.2, μmol MnCl2, 100 μg taurodeoxycholate or Triton CF-54, 20 μg acceptor glycolipid, 15 nmol UDP-[^14C]-galactose (13,000 cpm/nmol) and enzyme in a total volume of 100 μl. Conditions for incubation and product isolation were as previously described (Id.).

β3Gal-T2 = target: T2, β3Gal-T2 (Homo sapiens, UniProt O43825); assay: Galactosyltransferase assay with glycoprotein acceptors, β3Gal-T2; format: biochemical; conditions: for β3Gal-T2 activity with glycoprotein acceptor: 0.5 mg glycoprotein, 150 μM UDP-Gal
T2 construct: The kinetic properties were determined with partially purified, secreted forms of the enzymes; made in house; host or cells: baculovirus; Sf9 / High Five insect cells, medium
T2 sequence (O43825 46-422 limits assumed): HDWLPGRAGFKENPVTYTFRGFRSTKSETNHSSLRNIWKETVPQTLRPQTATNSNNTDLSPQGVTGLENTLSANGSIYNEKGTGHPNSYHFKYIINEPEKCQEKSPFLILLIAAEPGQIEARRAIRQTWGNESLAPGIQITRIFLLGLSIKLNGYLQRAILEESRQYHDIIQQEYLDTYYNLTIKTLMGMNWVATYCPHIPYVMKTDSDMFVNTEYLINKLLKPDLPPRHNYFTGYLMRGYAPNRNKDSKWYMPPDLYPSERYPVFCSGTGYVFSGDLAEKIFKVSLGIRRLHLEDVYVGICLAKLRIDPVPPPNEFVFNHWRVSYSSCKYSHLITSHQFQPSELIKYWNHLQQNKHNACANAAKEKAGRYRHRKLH
Description: as §1

β3Gal-T5 [1] = target: T3, β3Gal-T5 (Homo sapiens, UniProt Q9Y2C3, M85T); assay: Galactosyltransferase assay with glycoprotein acceptors, β3Gal-T5; format: biochemical; conditions: for β3Gal-T5 activity with glycoprotein acceptor: 0.5 mg glycoprotein, 150 μM UDP-Gal
T3 construct: designed to exclude the hydrophobic transmembrane segment and to encode amino acid residues 25-310; secretion signal of vector pAcGP67B (gp67); made in house; host or cells: baculovirus; Sf9 cells (media) and High Five cells (serum-free medium, partially purified)
T3 sequence (Q9Y2C3 25-310 M85T): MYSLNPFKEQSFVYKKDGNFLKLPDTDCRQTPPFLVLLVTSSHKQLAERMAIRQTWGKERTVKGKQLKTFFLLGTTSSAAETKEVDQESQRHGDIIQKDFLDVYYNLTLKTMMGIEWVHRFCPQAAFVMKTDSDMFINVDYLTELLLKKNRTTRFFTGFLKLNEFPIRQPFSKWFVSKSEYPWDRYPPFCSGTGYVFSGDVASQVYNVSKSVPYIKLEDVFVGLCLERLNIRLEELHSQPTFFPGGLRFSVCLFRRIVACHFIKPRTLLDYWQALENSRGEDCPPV
Description: as §1

[2] = test system: human colonic β3Gal-transferase activity; conditions: acceptor substrate; read-out: apparent Km, human colonic β3Gal-T activity; cited from earlier work
β3Gal-T5 [3] = target: T3, β3Gal-T5; assay: Galactosyltransferase assay with glycolipid acceptors, β3Gal-T5; format: biochemical
Description: as §1

[4] = test system: β3Gal-T activity from Colo205 cells; conditions: acceptor substrate; cited from earlier work

β3Gal-T1 ratio glycoprotein / β-D-GlcNAc-Bzl (β3Gal-T1): (0.0)
β3Gal-T1 activity with glycoprotein acceptor (β3Gal-T1): 0.0 mmol/min
β3Gal-T2 ratio glycoprotein / β-D-GlcNAc-Bzl (β3Gal-T2): (0.0)
β3Gal-T2 activity with glycoprotein acceptor (β3Gal-T2): 0.0 mmol/min
β3Gal-T5 ratio glycoprotein / β-D-GlcNAc-Bzl (β3Gal-T5 [1]): (0.0)
β3Gal-T5 activity with glycoprotein acceptor (β3Gal-T5 [1]): 0.0 mmol/min
Molecule: Orosomucoid: glycoprotein acceptor substrate

Molecule: CC(=O)N[C@H]1[C@H](O[C@H]2[C@@H](O)[C@@H](CO)O[C@@H](O[C@H]3[C@H](O)[C@@H](O)C(O)O[C@@H]3CO)[C@@H]2O)O[C@H](CO)[C@@H](O)[C@@H]1O (stereo partly drawn) [β-D-GlcNAc(1-3)-D-β-Gal(1-4)-D-β-Glc]
Km [2]: 2900 µM

β3Gal-T5 activity with glycolipid acceptor, Triton CF-54 (β3Gal-T5 [3]; 100 μg Triton CF-54/100 μl, 20 μg glycolipid): 3.6 µmol/h/mg
β3Gal-T5 activity with glycolipid acceptor, TDOC (β3Gal-T5 [3]; 100 μg taurodeoxycholate/100 μl, 20 μg glycolipid): 4.4 µmol/h/mg
Km (β3Gal-T5 [3]; in the presence taurodeoxycholate, based on data points at low concentrations (substrate inhibition), read-out: apparent Km of β3Gal-T5): ~2 µM
Molecule: GlcNAcβ1-3Galβ1-4Glcβ1-Cer [Lc3]
Km [4]: 13 µM

β3Gal-T1 ratio glycoprotein / β-D-GlcNAc-Bzl (β3Gal-T1): (0.0)
β3Gal-T1 activity with glycoprotein acceptor (β3Gal-T1): 0.0 mmol/min
β3Gal-T2 ratio glycoprotein / β-D-GlcNAc-Bzl (β3Gal-T2): (0.0)
β3Gal-T2 activity with glycoprotein acceptor (β3Gal-T2): 0.0 mmol/min
β3Gal-T5 ratio glycoprotein / β-D-GlcNAc-Bzl (β3Gal-T5 [1]): (0.4)
β3Gal-T5 activity with glycoprotein acceptor (β3Gal-T5 [1]): 0.04 mmol/min
Molecule: Bovine submaxillary mucin

β3Gal-T1 ratio glycoprotein / β-D-GlcNAc-Bzl (β3Gal-T1): (0.3)
β3Gal-T1 activity with glycoprotein acceptor (β3Gal-T1): 0.01 mmol/min
β3Gal-T2 ratio glycoprotein / β-D-GlcNAc-Bzl (β3Gal-T2): (1.8)
β3Gal-T2 activity with glycoprotein acceptor (β3Gal-T2): 0.07 mmol/min
β3Gal-T5 ratio glycoprotein / β-D-GlcNAc-Bzl (β3Gal-T5 [1]): (0.0)
β3Gal-T5 activity with glycoprotein acceptor (β3Gal-T5 [1]): 0.0 mmol/min
Molecule: Asialo-agalacto-fetuin: glycoprotein acceptor substrate

β3Gal-T1 ratio glycoprotein / β-D-GlcNAc-Bzl (β3Gal-T1): (0.0)
β3Gal-T1 activity with glycoprotein acceptor (β3Gal-T1): 0.0 mmol/min
β3Gal-T2 ratio glycoprotein / β-D-GlcNAc-Bzl (β3Gal-T2): (0.5)
β3Gal-T2 activity with glycoprotein acceptor (β3Gal-T2): 0.02 mmol/min
β3Gal-T5 ratio glycoprotein / β-D-GlcNAc-Bzl (β3Gal-T5 [1]): (0.0)
β3Gal-T5 activity with glycoprotein acceptor (β3Gal-T5 [1]): 0.0 mmol/min
B1: Hen egg albumin: glycoprotein acceptor substrate (protein, UniProt P01012 2-386, looked up)
Ovalbumin: GSIGAASMEFCFDVFKELKVHHANENIFYCPIAIMSALAMVYLGAKDSTRTQINKVVRFDKLPGFGDSIEAQCGTSVNVHSSLRDILNQITKPNDVYSFSLASRLYAEERYPILPEYLQCVKELYRGGLEPINFQTAADQARELINSWVESQTNGIIRNVLQPSSVDSQTAMVLVNAIVFKGLWEKAFKDEDTQAMPFRVTEQESKPVQMMYQIGLFRVASMASEKMKILELPFASGTMSMLVLLPDEVSGLEQLESIINFEKLTEWTSSNVMEERKIKVYLPRMKMEEKYNLTSVLMAMGITDVFSSSANLSGISSAESLKISQAVHAAHAEINEAGREVVGSAEAGVDAASVSEEFRADHPFLFCIKHIATNAVLFFGRCVSP
